The test system of data set [1] is Flag-tagged RORγt (wild type).
Data set [2] concerns the target Myc-tagged IQGAP1 (wild type).

Myc-tagged IQGAP1 (wild type), sequence (chain, as listed by the source): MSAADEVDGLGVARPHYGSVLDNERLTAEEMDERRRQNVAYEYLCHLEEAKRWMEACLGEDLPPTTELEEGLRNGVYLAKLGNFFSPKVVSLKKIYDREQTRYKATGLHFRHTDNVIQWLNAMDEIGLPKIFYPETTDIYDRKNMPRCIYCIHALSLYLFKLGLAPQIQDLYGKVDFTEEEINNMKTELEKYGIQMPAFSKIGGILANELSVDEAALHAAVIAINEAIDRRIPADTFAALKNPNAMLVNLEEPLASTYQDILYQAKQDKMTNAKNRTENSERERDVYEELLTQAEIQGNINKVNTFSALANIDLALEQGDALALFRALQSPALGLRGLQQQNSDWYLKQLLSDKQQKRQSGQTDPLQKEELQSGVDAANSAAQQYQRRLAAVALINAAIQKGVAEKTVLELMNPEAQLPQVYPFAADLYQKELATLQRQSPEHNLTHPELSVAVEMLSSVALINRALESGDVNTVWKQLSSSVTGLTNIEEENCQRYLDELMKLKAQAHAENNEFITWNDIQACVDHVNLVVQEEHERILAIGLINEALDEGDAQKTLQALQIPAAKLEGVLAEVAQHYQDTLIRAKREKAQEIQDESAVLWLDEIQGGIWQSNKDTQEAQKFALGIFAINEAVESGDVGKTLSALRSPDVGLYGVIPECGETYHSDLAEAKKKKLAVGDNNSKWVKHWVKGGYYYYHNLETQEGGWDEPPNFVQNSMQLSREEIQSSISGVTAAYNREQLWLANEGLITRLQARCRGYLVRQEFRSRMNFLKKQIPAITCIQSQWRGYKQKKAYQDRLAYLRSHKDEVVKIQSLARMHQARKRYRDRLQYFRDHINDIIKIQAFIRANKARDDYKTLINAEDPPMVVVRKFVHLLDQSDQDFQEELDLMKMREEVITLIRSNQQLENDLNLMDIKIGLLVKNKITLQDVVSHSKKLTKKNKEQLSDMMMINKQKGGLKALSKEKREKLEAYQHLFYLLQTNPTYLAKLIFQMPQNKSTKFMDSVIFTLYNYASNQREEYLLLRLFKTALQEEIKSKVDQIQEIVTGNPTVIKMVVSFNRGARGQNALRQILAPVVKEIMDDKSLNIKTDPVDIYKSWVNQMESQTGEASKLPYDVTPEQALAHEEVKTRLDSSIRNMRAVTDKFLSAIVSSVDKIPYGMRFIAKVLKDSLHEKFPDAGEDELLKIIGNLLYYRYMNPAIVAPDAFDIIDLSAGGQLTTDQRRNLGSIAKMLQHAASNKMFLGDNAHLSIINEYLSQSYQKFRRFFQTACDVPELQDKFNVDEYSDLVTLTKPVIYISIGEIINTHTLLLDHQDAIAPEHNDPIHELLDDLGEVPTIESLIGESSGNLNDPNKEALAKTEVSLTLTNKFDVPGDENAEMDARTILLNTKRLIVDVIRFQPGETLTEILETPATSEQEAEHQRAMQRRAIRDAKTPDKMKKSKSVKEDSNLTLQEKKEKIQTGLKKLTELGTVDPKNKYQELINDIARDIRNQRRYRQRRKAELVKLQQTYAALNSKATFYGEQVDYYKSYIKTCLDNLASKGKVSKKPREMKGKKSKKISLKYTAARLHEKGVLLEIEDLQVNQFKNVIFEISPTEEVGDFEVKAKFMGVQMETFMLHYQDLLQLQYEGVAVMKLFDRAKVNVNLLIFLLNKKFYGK
Flag-tagged RORγt (wild type), sequence (chain, as listed by the source): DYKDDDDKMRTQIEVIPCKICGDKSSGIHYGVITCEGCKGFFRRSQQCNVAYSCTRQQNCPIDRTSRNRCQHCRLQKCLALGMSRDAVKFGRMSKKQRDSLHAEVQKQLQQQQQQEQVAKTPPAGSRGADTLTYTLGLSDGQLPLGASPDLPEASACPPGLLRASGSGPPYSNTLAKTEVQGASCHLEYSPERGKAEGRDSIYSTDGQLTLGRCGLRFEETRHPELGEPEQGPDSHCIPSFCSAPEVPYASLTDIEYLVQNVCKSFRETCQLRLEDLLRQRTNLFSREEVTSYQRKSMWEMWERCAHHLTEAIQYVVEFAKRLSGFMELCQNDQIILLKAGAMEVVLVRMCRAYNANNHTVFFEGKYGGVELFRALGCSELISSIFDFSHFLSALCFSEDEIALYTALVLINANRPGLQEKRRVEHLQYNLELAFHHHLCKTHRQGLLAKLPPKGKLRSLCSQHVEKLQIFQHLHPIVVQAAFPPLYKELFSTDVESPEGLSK

B1: IKKβ (immunoprecipitated from HEK293T transfectants) (enzyme, UniProt O14920 1-756, looked up, species assumed)
Inhibitor of nuclear factor kappa-B kinase subunit beta: MSWSPSLTTQTCGAWEMKERLGTGGFGNVIRWHNQETGEQIAIKQCRQELSPRNRERWCLEIQIMRRLTHPNVVAARDVPEGMQNLAPNDLPLLAMEYCQGGDLRKYLNQFENCCGLREGAILTLLSDIASALRYLHENRIIHRDLKPENIVLQQGEQRLIHKIIDLGYAKELDQGSLCTSFVGTLQYLAPELLEQQKYTVTVDYWSFGTLAFECITGFRPFLPNWQPVQWHSKVRQKSEVDIVVSEDLNGTVKFSSSLPYPNNLNSVLAERLEKWLQLMLMWHPRQRGTDPTYGPNGCFKALDDILNLKLVHILNMVTGTIHTYPVTEDESLQSLKARIQQDTGIPEEDQELLQEAGLALIPDKPATQCISDGKLNEGHTLDMDLVFLFDNSKITYETQISPRPQPESVSCILQEPKRNLAFFQLRKVWGQVWHSIQTLKEDCNRLQQGQRAAMMNLLRNNSCLSKMKNSMASMSQQLKAKLDFFKTSIQIDLEKYSEQTEFGITSDKLLLAWREMEQAVELCGRENEVKLLVERMMALQTDIVDLQRSPMGRKQGGTLDDLEEQARELYRRLREKPRDQRTEGDSQEMVRLLLQAIQSFEKKVRVIYTQLSKTVVCKQKALELLPKVEEVVSLMNEDEKTVVRLQEKRQKELWNLLKIACSKVRGPVSGSPDSMNASRLSQPGQLMSQPSTASNSLPEPAKKSEELVAEAHNLCTLLENAIQDTVREQDQSFTALDWSWLQTEEEEHSCLEQAS
For B1, the “in vitro kinase assay: RORγt phosphorylation” value in data set [1] was “RORγt phosphorylation was induced in vitro by IKKβ”.

B2: Flag-tagged GLK (protein)
chain: DYKDDDDKMNPGFDLSRRNPQEDFELIQRIGSGTYGDVYKARNVNTGELAAIKVIKLEPGEDFAVVQQEIIMMKDCKHPNIVAYFGSYLRRDKLWICMEFCGGGSLQDIYHVTGPLSELQIAYVSRETLQGLYYLHSKGKMHRDIKGANILLTDNGHVKLADFGVSAQITATIAKRKSFIGTPYWMAPEVAAVERKGGYNQLCDLWAVGITAIELAELQPPMFDLHPMRALFLMTKSNFQPPKLKDKMKWSNSFHHFVKMALTKNPKKRPTAEKLLQHPFVTQHLTRSLAIELLDKVNNPDHSTYHDFDDDDPEPLVAVPHRIHSTSRNVREEKTRSEITFGQVKFDPPLRKETEPHHELPDSDGFLDSSEEIYYTARSNLDLQLEYGQGHQGGYFLGANKSLLKSVEEELHQRGHVAHLEDDEGDDDESKHSTLKAKIPPPLPPKPKSIFIPQEMHSTEDENQGTIKRCPMSGSPAKPSQVPPRPPPPRLPPHKPVALGNGMSSFQLNGERDGSLCQQQNEHRGTNLSRKEKKDVPKPISNGLPPTPKVHMGACFSKVFNGCPLKIHCASSWINPDTRDQYLIFGAEEGIYTLNLNELHETSMEQLFPRRCTWLYVMNNCLLSISGKASQLYSHNLPGLFDYARQMQKLPVAIPAHKLPDRILPRKFSVSAKIPETKWCQKCCVVRNPYTGHKYLCGALQTSIVLLEWVEPMQKFMLIKHIDFPIPCPLRMFEMLVVPEQEYPLVCVGVSRGRDFNQVVRFETVNPNSTSSWFTESDTPQTNVTHVTQLERDTILVCLDCCIKIVNLQGRLKSSRKLSSELTFDFQIESIVCLQDSVLAFWKHGMQGRSFRSNEVTQEISDSTRIFRLLGSDRVVVLESRPTDNPTANSNLYILAGHENSY
As to B2, the “in vitro kinase assay: IQGAP1 phosphorylation” value in data set [2] is “IQGAP1 phosphorylation was induced by GLK”.

Source of the values: patent publication US20200057047.
